Data reported in US20080311132A1.

Tests used:
[1] = biological target: Factor H (UniProt P08603); test: SPR (Biacore), CVF on the chip, factor H in solution
[2] = biological target: C5 (UniProt P01031); test: SPR (Biacore), CVF on the chip, C5 in solution
[3] = biological target: Factor B (UniProt P00751); test: SPR (Biacore), CVF on the chip, factor B in solution, with factor D and Mg
[4] = biological target: Bb, the activated form of factor B (UniProt P00751); test: SPR (Biacore) at 25° C., half-life of the C3 convertase formed on CVF on the chip
[5] = biological target: Factor B (UniProt P00751); test: SPR (Biacore), CVF on the chip, factor B in solution, in EDTA
[6] = biological target: Factor B (UniProt P00751); test: SPR (Biacore), CVF on the chip, factor B in solution, with Mg

Chain of Factor B (P00751 26-764 limits assumed): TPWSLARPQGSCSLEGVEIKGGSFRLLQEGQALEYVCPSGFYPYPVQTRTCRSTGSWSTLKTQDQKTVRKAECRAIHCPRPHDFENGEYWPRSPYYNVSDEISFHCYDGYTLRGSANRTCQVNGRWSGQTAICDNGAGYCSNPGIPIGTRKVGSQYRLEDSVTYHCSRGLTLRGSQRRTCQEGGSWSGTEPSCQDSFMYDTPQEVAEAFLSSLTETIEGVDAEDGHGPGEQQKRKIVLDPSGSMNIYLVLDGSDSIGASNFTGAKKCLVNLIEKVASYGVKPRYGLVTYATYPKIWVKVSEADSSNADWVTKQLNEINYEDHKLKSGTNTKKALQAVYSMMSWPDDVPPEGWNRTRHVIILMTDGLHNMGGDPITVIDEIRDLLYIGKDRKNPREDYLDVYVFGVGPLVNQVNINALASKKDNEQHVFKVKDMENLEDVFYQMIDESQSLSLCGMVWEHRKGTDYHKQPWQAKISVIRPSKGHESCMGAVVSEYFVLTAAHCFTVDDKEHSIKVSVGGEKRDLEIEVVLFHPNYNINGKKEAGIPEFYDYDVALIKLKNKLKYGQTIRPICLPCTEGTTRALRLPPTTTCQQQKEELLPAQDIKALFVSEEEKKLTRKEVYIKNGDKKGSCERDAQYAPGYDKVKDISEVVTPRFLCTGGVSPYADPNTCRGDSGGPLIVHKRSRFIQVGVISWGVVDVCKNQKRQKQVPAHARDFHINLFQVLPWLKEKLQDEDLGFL
Chain of Cobra Venom Factor (Q91132 23-649 limits assumed): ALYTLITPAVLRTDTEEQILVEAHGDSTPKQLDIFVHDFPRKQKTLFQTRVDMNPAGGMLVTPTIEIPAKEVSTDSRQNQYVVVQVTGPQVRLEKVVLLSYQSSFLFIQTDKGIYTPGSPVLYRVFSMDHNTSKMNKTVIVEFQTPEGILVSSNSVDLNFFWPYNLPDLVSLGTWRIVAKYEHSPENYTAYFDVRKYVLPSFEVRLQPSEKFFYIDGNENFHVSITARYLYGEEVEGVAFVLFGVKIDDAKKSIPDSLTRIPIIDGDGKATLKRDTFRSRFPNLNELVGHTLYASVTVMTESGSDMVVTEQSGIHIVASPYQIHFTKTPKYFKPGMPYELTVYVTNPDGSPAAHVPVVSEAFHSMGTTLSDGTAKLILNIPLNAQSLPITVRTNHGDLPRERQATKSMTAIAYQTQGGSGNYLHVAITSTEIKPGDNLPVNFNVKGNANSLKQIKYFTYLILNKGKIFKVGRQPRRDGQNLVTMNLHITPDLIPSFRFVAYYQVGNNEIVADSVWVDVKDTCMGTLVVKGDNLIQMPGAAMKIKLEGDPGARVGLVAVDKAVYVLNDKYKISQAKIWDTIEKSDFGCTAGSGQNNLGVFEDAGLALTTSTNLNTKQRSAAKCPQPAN
Chain of Cobra Venom Factor (Q91132 733-984 limits assumed): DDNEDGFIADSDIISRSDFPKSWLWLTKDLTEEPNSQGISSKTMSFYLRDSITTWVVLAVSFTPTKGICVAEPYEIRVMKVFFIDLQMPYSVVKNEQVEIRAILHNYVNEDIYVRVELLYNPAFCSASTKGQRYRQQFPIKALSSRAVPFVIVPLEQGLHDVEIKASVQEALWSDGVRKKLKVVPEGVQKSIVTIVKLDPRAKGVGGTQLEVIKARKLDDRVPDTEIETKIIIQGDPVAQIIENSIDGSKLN
Chain of Cobra Venom Factor (Q91132 1264-1642 limits assumed): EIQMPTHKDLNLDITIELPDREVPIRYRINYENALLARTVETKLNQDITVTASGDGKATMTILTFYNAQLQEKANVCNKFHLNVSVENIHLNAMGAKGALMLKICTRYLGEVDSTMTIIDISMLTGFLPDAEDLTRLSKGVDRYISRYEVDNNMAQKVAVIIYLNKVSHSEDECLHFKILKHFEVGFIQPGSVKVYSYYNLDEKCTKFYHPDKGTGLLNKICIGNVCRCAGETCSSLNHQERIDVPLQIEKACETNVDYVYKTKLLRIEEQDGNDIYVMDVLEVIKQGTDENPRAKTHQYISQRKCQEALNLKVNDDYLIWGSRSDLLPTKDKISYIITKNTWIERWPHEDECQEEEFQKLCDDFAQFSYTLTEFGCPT
Chain of C5 (P01031 19-673 limits assumed, form in doubt, chain 1 of 2): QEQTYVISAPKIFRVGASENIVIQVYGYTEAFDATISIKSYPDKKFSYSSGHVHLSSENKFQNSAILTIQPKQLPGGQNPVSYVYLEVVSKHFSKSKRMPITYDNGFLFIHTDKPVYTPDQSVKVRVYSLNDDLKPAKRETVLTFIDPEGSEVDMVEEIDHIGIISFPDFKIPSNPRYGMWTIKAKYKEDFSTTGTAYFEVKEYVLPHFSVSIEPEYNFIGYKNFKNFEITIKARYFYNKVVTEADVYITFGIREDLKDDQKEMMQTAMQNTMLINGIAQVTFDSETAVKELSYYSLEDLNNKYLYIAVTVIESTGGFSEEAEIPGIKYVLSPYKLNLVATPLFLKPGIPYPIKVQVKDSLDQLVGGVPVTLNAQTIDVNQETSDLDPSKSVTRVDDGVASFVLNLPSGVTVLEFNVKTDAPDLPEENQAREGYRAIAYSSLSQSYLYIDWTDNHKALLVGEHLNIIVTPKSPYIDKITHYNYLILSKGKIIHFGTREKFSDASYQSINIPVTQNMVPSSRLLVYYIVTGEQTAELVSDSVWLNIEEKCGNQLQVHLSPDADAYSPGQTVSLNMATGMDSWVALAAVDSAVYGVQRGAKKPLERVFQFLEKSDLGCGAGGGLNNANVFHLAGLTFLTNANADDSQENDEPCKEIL
Chain of C5 (P01031 678-1676 limits assumed, form in doubt, chain 2 of 2): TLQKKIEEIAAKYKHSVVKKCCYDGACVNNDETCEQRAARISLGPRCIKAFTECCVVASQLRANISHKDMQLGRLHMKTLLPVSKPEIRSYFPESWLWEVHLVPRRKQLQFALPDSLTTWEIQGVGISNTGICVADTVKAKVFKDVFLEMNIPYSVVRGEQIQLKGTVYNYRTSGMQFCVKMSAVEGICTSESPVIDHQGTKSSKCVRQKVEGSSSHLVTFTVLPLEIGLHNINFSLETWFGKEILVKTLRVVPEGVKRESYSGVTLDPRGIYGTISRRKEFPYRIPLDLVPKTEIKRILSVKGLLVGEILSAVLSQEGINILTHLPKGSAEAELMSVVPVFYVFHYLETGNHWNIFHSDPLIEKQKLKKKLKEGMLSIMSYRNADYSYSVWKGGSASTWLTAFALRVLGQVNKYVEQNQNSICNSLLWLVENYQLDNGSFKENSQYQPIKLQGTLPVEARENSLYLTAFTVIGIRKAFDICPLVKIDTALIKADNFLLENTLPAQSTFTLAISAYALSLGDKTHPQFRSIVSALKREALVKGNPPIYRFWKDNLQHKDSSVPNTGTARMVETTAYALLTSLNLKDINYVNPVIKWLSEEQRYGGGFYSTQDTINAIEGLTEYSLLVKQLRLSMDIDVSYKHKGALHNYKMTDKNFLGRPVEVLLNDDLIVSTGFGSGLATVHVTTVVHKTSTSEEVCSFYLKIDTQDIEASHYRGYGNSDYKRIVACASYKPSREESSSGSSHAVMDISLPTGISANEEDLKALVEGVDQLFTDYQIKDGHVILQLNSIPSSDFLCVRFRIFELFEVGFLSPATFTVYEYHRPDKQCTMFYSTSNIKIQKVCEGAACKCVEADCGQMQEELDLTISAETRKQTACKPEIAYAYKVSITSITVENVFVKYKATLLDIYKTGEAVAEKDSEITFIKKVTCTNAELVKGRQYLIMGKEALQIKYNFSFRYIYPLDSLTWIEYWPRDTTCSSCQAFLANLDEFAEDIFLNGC
Chain of Factor H (P08603 19-1231 limits assumed): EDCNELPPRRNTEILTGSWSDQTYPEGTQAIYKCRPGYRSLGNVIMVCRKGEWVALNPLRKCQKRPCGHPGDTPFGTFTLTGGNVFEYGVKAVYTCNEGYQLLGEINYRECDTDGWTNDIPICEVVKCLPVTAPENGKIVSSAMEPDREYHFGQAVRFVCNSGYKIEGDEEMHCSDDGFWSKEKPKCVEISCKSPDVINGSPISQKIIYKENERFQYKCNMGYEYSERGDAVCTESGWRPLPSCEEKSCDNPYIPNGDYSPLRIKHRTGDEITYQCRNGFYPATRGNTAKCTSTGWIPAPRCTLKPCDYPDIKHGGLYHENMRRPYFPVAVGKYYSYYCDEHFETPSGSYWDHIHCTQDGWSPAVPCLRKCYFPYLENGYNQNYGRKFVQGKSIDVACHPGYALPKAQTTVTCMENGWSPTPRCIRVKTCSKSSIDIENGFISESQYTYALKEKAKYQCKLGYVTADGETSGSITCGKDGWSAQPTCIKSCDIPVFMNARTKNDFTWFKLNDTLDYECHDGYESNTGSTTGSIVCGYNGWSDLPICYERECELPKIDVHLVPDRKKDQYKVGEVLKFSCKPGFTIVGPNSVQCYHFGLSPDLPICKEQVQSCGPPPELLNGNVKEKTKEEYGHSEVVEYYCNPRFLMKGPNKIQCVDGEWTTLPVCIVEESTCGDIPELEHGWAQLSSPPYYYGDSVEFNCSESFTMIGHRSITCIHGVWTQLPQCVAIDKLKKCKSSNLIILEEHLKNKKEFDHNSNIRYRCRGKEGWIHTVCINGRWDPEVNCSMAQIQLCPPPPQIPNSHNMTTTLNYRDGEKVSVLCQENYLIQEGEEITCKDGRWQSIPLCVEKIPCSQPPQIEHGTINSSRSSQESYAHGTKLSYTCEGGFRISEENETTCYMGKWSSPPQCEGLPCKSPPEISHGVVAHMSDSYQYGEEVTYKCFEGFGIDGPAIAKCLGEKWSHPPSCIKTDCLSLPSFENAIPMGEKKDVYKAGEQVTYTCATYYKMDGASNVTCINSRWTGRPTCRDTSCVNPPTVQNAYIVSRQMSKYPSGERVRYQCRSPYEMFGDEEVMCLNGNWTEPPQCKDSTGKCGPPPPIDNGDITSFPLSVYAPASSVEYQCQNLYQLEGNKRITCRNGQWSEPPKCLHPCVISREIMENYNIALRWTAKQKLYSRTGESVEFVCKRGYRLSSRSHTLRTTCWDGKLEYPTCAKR

Cobra Venom Factor (from UniProt Q91132 23-649; Q91132 733-984; Q91132 1264-1642)
Amount of protein bound (RU) [1]: -14 RU | Amount of protein bound (RU) [2]: 617 RU | Amount of protein bound (RU) [3]: 370 RU | T½ of C3 convertase [4]: 18.3 h | Amount of protein bound (RU) [5]: 99 RU | Amount of protein bound (RU) [6]: 298 RU
